Experimental data from publication PMC9458691.

Columns and labels:
Assay in all cases: native gel or EMSA; Blue Native PAGE, gradient from 3.5 to 16% polyacrylamide, of the IEC fractions of affinity purified PSII
[1] = biological target: PSII with the protein composition of mature PSII, isolated via CP43-TS-Tag (T. elongatus (endogenous in T. elongatus BP-1) | Thermosynechococcus elongatus BP-1) (UniProt P0A444)
[2] = biological target: PSII with the protein composition of mature PSII, isolated via His-tagged CP43 (T. elongatus (endogenous in T. elongatus) | Thermosynechococcus elongatus) (UniProt P0A444)
[3] = biological target: Psb27-PSII complex isolated via CP43-TS-Tag (PSII with Psb27, without the extrinsic subunits) (T. elongatus (endogenous in T. elongatus BP-1) | Thermosynechococcus elongatus BP-1) (UniProt P0A444)
[4] = biological target: Psb27-PSII complex isolated via His-tagged CP43 (PSII with Psb27, without the extrinsic subunits) (T. elongatus (endogenous in T. elongatus) | Thermosynechococcus elongatus) (UniProt P0A444)

PSII with the protein composition of mature PSII, isolated via CP43-TS-Tag (from UniProt P0A444 1-344; Q8CM25 1-352; Q8DIF8 1-461; Q8DIQ1 1-510; P0A431 27-272; Q9F1L5 31-134; P0A386 27-163) (complex)
stoichiometry N [1]: 2

PSII with the protein composition of mature PSII, isolated via His-tagged CP43 (from UniProt P0A444 1-344; Q8CM25 1-352; Q8DIF8 1-461; Q8DIQ1 1-510; P0A431 27-272; Q9F1L5 31-134; P0A386 27-163) (complex)
stoichiometry N [2]: 2

Psb27-PSII complex isolated via CP43-TS-Tag (PSII with Psb27, without the extrinsic subunits) (from UniProt P0A444 1-344; Q8CM25 1-352; Q8DIF8 1-461; Q8DIQ1 1-510; Q8DG60 22-134)
stoichiometry N [3]: 2

Psb27-PSII complex isolated via His-tagged CP43 (PSII with Psb27, without the extrinsic subunits) (from UniProt P0A444 1-344; Q8CM25 1-352; Q8DIF8 1-461; Q8DIQ1 1-510; Q8DG60 22-134)
stoichiometry N [4]: 2
